Here are results for one molecule from article PMC4191604 (Journal of Medicinal Chemistry, 2014).

What all share (experiment): SPR
(In SPR one partner is held on a chip, and binding of the other changes the refractive index at the surface.)

One test concerns the target T1, GBP1 mutant R48A (human, UniProt P32455 1-592, R48A).
T1 sequence (looked up): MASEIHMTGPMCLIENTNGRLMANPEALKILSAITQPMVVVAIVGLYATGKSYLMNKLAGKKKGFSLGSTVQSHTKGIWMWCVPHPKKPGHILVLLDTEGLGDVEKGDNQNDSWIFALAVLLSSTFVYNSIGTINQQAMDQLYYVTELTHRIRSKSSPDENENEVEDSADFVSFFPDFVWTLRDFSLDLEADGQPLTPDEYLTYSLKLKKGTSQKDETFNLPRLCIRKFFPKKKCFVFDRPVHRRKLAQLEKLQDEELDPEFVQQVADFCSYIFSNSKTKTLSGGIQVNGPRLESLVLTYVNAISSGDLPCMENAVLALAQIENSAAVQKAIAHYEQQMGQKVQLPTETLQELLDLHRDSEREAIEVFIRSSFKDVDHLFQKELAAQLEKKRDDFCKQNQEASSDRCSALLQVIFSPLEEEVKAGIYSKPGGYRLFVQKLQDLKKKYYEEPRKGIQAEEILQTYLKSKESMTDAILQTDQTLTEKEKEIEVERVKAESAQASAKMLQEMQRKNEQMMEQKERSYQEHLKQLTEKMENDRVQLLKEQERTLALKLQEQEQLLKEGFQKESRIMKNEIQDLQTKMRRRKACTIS

A further test deals with T2, GBP1 mutant R227E/K228E (human, UniProt P32455 1-592, R227E | K228E).
T2 sequence (looked up): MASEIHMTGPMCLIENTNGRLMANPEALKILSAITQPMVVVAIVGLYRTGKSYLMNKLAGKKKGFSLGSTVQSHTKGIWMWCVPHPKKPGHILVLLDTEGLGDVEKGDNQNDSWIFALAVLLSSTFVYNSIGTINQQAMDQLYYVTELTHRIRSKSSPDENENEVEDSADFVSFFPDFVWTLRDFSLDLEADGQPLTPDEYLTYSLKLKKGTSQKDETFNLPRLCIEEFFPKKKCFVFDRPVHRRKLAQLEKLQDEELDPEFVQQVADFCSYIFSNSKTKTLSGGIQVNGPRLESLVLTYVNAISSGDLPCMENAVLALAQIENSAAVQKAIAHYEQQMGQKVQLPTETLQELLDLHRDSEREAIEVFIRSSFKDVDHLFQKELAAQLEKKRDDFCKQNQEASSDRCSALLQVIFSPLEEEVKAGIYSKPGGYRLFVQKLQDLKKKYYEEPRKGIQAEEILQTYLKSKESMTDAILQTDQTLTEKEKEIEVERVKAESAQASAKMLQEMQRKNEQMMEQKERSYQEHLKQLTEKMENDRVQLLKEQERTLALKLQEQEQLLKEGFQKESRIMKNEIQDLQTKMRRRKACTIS

The target of another test is T3, GBP1 mutant K51A (human, UniProt P32455 1-592, K51A).
T3 sequence (looked up): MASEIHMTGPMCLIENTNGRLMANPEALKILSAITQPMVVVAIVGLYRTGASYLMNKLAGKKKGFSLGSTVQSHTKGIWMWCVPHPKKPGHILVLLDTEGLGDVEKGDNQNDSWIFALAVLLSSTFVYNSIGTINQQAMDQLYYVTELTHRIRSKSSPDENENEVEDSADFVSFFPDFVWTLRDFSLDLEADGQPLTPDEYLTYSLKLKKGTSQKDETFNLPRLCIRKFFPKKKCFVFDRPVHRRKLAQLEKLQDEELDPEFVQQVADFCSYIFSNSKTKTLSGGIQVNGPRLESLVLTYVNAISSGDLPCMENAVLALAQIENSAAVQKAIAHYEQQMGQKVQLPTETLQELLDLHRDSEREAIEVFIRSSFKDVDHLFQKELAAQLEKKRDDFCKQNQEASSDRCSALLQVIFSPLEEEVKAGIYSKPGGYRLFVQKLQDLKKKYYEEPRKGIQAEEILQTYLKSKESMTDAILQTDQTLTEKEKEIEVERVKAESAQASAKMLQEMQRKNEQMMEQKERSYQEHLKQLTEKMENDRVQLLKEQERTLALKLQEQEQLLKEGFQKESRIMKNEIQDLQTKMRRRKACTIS

For a further test, the target named is T4, GBP1 mutant D103N (human, UniProt P32455 1-592, D103N).
T4 sequence (looked up): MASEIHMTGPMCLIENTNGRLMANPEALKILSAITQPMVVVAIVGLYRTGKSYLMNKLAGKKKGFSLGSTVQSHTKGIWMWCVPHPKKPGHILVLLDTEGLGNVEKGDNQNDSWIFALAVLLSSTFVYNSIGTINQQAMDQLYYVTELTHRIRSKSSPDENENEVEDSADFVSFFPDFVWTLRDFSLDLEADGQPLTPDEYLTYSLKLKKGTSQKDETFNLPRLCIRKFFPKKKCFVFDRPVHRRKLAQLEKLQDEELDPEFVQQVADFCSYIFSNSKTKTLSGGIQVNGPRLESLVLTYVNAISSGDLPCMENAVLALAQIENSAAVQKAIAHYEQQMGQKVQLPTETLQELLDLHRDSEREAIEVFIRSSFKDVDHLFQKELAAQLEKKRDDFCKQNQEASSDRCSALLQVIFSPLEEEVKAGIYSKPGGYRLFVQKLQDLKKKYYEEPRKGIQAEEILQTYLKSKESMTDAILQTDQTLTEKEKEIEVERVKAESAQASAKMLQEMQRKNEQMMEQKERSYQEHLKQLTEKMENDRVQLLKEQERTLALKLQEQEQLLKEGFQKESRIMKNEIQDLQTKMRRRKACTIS

As a reminder, the Kd is the concentration at which binding is half-saturated. Lower therefore signals a tighter complex.

B1: PIM1 (recombinant) (enzyme)
chain: not shown
On to B1, for which the Kd with GBP1 mutant R48A is 290 ± 21 nM; with GBP1 mutant R227E/K228E, > 10000 nM; in the test with GBP1 mutant K51A, 50 ± 10 nM; in the test with GBP1 mutant D103N it was 21 ± 1 nM.
